Reference: article PMC8013792, “Bacterial protein domains with a novel Ig‐like fold target human CEACAM receptors” (The EMBO Journal, 2021)

B1: IgSF (IgI3) domain of β protein, recombinant, biotinylated [modified: biotin, C-terminal] [Streptococcus agalactiae (GBS)] / recombinant CEACAM1 N-terminal domain, unglycosylated, 6xHis tagged [human] (parent)
chain 1: MAQLTTESMPFNVAEGKEVLLLVHNLPQQLFGYSWYKGERVDGNRQIVGYAIGTQQATPGPANSGRETIYPNASLLIQNVTQNDTGFYTLQVIKSDLVNEEATGQFHVY
chain 2: ANENNQQKIELTVSPENITVYEGEDVKFTVTAKSDSKTTLDFSDLLTKYNPSVSDRISTNYKTNTDNHKIAEITIKNLKLNESQTVTLKAKDDSGNVVEKTFTITVQKKEEKQLPSTGGS

Variants of: B1
Experiment: flow cytometry on coated dynabeads
Conditions: with recombinant CEACAM1 N-terminal domain, parent: 390, read off a plot

Variant	response (Geometric MFI)
chain 2 S52A	320
chain 2 L45A	350
